Measured values published in the supplement of paper PMC9233669.
Fewer inactive variants are shown than the library holds.

Legend:
biotinyl-Leu-oxazolone = assay: self-aminoacylation, catalytic enhancement (BLO) (fold over background); higher = more active; k-Seq, kA / k0A0; sequences stand for … in GGGAAUGGAUCCACAUCUACGAAUUC…UUCACUGCAGACUUGACGAAGCUG
How it was run: (§1)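 Each biotinyl-aminoacyl-oxazolone, at 2–1250 μM, was incubated with mutagenized RNA pools (0.43 μM) carrying a 21-nt variable region. The 50 μL reactions contained HEPES/NaCl/KCl/MgCl2/CaCl2 buffer with 5% acetonitrile at pH 6.9–7.0 and ran for 90 minutes at room temperature. After streptavidin capture, RNA was measured by qPCR in triplicate and by Illumina sequencing, and catalytic enhancement was calculated as median kA over the uncatalyzed rate from a pseudo-first-order fit of per-sequence fraction reacted.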

biotinyl-Val-oxazolone = assay: self-aminoacylation, catalytic enhancement (BVO) (fold over background); higher = more active; k-Seq, kA / k0A0; sequences stand for … in GGGAAUGGAUCCACAUCUACGAAUUC…UUCACUGCAGACUUGACGAAGCUG
How it was run: as §1

biotinyl-Met-oxazolone = assay: self-aminoacylation, catalytic enhancement (BMO) (fold over background); higher = more active; k-Seq, kA / k0A0; sequences stand for … in GGGAAUGGAUCCACAUCUACGAAUUC…UUCACUGCAGACUUGACGAAGCUG
How it was run: as §1

biotinyl-Phe-oxazolone = assay: self-aminoacylation, catalytic enhancement (BFO) (fold over background); higher = more active; k-Seq, kA / k0A0; sequences stand for … in GGGAAUGGAUCCACAUCUACGAAUUC…UUCACUGCAGACUUGACGAAGCUG
How it was run: as §1

biotinyl-Trp-oxazolone = assay: self-aminoacylation, catalytic enhancement (BWO) (fold over background); higher = more active; k-Seq, kA / k0A0; sequences stand for … in GGGAAUGGAUCCACAUCUACGAAUUC…UUCACUGCAGACUUGACGAAGCUG
How it was run: as §1

biotinyl-Ile-oxazolone = assay: self-aminoacylation, catalytic enhancement (BIO) (fold over background); higher = more active; k-Seq, kA / k0A0; sequences stand for … in GGGAAUGGAUCCACAUCUACGAAUUC…UUCACUGCAGACUUGACGAAGCUG
How it was run: as §1

| Sequence | self-aminoacylation (biotinyl-Leu-oxazolone) | self-aminoacylation (biotinyl-Val-oxazolone) | self-aminoacylation (biotinyl-Met-oxazolone) | self-aminoacylation (biotinyl-Phe-oxazolone) | self-aminoacylation (biotinyl-Trp-oxazolone) | self-aminoacylation (biotinyl-Ile-oxazolone) |
| --- | --- | --- | --- | --- | --- | --- |
| CUACUUCUAACCAUCGGUCUG [Fam1A.1 aminoacylation ribozyme variant] | 0.653 | 0.761 | 0.659 | 0.859 | 0.45 | 0.703 |
| CUACUUCUAUCAAUCGGUCUG [Fam1A.1 aminoacylation ribozyme variant] | 0.554 | 0.63 | 0.636 | 0.796 | 0.493 | 0.7 |
| CUACUUGAAACAAACGGUCUG [Fam1A.1 aminoacylation ribozyme variant] | 0.826 | 0.985 | 1.05 | 0.858 | 1.03 | 1.02 |
| CUACUUGAAACAAUCGGGCUG [Fam1A.1 aminoacylation ribozyme variant] | 1.83 | 1.93 | 1.95 | 1.26 | 2.37 | 1.51 |
| CUACUUGAAACAAUCGGUCCG [Fam1A.1 aminoacylation ribozyme variant] | 0.748 | 1.02 | 1.31 | 0.497 | 1.48 | 0.929 |
| CUACUUGAAACGAUCGGUCUG [Fam1A.1 aminoacylation ribozyme variant] | 1.24 | 1.05 | 1.11 | 0.916 | 0.726 | 0.968 |
| CUACUUGAUACAAUCGGUCUG [Fam1A.1 aminoacylation ribozyme variant] | 0.734 | 0.776 | 0.735 | 0.52 | 0.517 | 0.753 |
| CUACUUUAAACAAUCGGACUG [Fam1A.1 aminoacylation ribozyme variant] | 0.759 | 0.757 | 0.874 | 0.698 | 0.809 | 0.901 |
| CUACUUUAAACAAUCGGCCUG [Fam1A.1 aminoacylation ribozyme variant] | 0.974 | 1.03 | 1.24 | 0.942 | 2.02 | 1.2 |
| CUACUUUAAACAAUCGGUCUU [Fam1A.1 aminoacylation ribozyme variant] | 0.738 | 0.885 | 1.09 | 0.805 | 0.6 | 0.888 |
| CUACUUUACACAAUCGGUCUG [Fam1A.1 aminoacylation ribozyme variant] | 0.742 | 0.805 | 0.872 | 0.601 | 0.543 | 0.87 |
| CUACUUUCAACAAUCGGUCUG [Fam1A.1 aminoacylation ribozyme variant] | 1.09 | 1.06 | 0.895 | 14.5 | 10.3 | 0.99 |
| CUACUUUUAACAAUCGGUCUG [Fam1A.1 aminoacylation ribozyme variant] | 0.713 | 0.802 | 0.921 | 0.864 | 0.516 | 0.888 |
| CUAGCUCAAACAAUCGGUCUG [Fam1A.1 aminoacylation ribozyme variant] | 0.742 | 0.914 | 0.776 | 4.58 | 3.09 | 0.817 |
| CUAGUGCAAACAAUCGGUCUG [Fam1A.1 aminoacylation ribozyme variant] | 1.03 | 1 | 0.962 | 2.39 | 0.9 | 0.998 |
| CUAGUUCAAACAAACGGUCUG [Fam1A.1 aminoacylation ribozyme variant] | 0.91 | 0.77 | 0.814 | 0.831 | 0.823 | 0.913 |
| CUAGUUCAAACAACCGGUCUG [Fam1A.1 aminoacylation ribozyme variant] | 0.965 | 1.2 | 1.05 | 0.987 | 0.982 | 1.23 |
| CUAGUUCAAACAGUCGGUCUG [Fam1A.1 aminoacylation ribozyme variant] | 1.12 | 0.945 | 0.947 | 0.551 | 0.759 | 1.04 |
| CUAGUUCAAAGAAUCGGUCUG [Fam1A.1 aminoacylation ribozyme variant] | 1.14 | 0.951 | 1.04 | 1.5 | 1.44 | 0.967 |
| CUAGUUCAAAUAAUCGGUCUG [Fam1A.1 aminoacylation ribozyme variant] | 0.879 | 0.793 | 0.872 | 3.78 | 2.87 | 0.901 |
| CUAGUUUAAACAAUCGGUCUG [Fam1A.1 aminoacylation ribozyme variant] | 0.774 | 0.765 | 0.84 | 0.814 | 0.631 | 0.924 |
| CUAUAUCAAACAAUCGGUCUG [Fam1A.1 aminoacylation ribozyme variant] | 0.638 | 0.634 | 0.561 | 1.62 | 1.01 | 0.752 |
| CUAUUUAAAACAAUCGGUCUG [Fam1A.1 aminoacylation ribozyme variant] | 0.774 | 0.841 | 0.927 | 0.598 | 0.616 | 0.834 |
| CUAUUUCAAACAAACGGUCUG [Fam1A.1 aminoacylation ribozyme variant] | 0.72 | 0.971 | 0.923 | 1.2 | 0.586 | 0.961 |
| CUAUUUCAAACAAUAGGUCUG [Fam1A.1 aminoacylation ribozyme variant] | 1.08 | 1.01 | 1.11 | 1.03 | 0.803 | 1.25 |
| CUAUUUCAAACAAUCCGUCUG [Fam1A.1 aminoacylation ribozyme variant] | 0.715 | 0.735 | 0.818 | 0.946 | 0.595 | 0.826 |

| Sequence | self-aminoacylation (biotinyl-Leu-oxazolone) | self-aminoacylation (biotinyl-Val-oxazolone) | self-aminoacylation (biotinyl-Met-oxazolone) | self-aminoacylation (biotinyl-Phe-oxazolone) | self-aminoacylation (biotinyl-Trp-oxazolone) | self-aminoacylation (biotinyl-Ile-oxazolone) |
| --- | --- | --- | --- | --- | --- | --- |
| CUAUUUCAAACAAUCGGUCGG [Fam1A.1 aminoacylation ribozyme variant] | 0.92 | 0.868 | 0.793 | 2.12 | 1.9 | 0.851 |
| CUAUUUCAAACAAUCGGUCUA [Fam1A.1 aminoacylation ribozyme variant] | 0.571 | 0.588 | 0.634 | 2.12 | 1.15 | 0.713 |
| CUAUUUCAAACAAUCGGUCUG [Fam1A.1 aminoacylation ribozyme variant] | 0.838 | 0.781 | 0.789 | 8.5 | 4.39 | 0.819 |
| CUAUUUCAAACAAUCGGUGUG [Fam1A.1 aminoacylation ribozyme variant] | 0.992 | 0.83 | 1.01 | 0.988 | 0.757 | 0.727 |
| CUAUUUCAAACCAUCGGUCUG [Fam1A.1 aminoacylation ribozyme variant] | 0.94 | 0.988 | 1.09 | 0.809 | 0.708 | 1.03 |
| CUAUUUCAAAGAAUCGGUCUG [Fam1A.1 aminoacylation ribozyme variant] | 0.86 | 0.794 | 0.93 | 1.19 | 1.12 | 0.887 |
| CUAUUUCAAAUAAUCGGUCUG [Fam1A.1 aminoacylation ribozyme variant] | 0.814 | 0.816 | 0.849 | 3.5 | 2.2 | 0.912 |
| CUAUUUCAUACAAUCGGUCUG [Fam1A.1 aminoacylation ribozyme variant] | 0.804 | 0.801 | 0.837 | 0.812 | 0.625 | 0.911 |
| CUAUUUGAAACAAUCGGUCUG [Fam1A.1 aminoacylation ribozyme variant] | 0.779 | 0.707 | 0.815 | 0.697 | 0.463 | 0.803 |
| CUCCACUUCAAGCAAUCGGUC [Fam1B.1 aminoacylation ribozyme variant] | 2.07 | 1.45 | 1.27 | 50.4 | 27.6 | 1.37 |
| CUCCUACAAACAAUCGGUCUG [Fam1A.1 aminoacylation ribozyme variant] | 0.873 | 0.693 | 0.838 | 0.939 | 0.924 | 0.836 |
| CUCCUGCAAACAAUCGGUCUG [Fam1A.1 aminoacylation ribozyme variant] | 0.904 | 1.06 | 1.14 | 4 | 0.784 | 0.858 |
| CUCCUUCAAACAAUCGGUCGG [Fam1A.1 aminoacylation ribozyme variant] | 2.14 | 1.33 | 1.96 | 62.4 | 24.2 | 1.32 |
| CUCCUUCAAACAAUCGGUCUG [Fam1A.1 aminoacylation ribozyme variant] | 2.04 | 1.2 | 1.29 | 59.2 | 32.3 | 1.1 |
| CUCCUUCAAAUAAUCGGUCUG [Fam1A.1 aminoacylation ribozyme variant] | 1.23 | 0.835 | 1.08 | 13.4 | 11.2 | 1.13 |
| CUGCUUCAAAAAAUCGGUCUG [Fam1A.1 aminoacylation ribozyme variant] | 1.59 | 0.976 | 1.25 | 17.9 | 14.2 | 1.35 |
| CUGCUUCAAACAAGCGGUCUG [Fam1A.1 aminoacylation ribozyme variant] | 0.777 | 0.731 | 0.597 | 0.392 | 0.576 | 0.718 |
| CUGCUUCAAACAAUCGCUCUG [Fam1A.1 aminoacylation ribozyme variant] | 0.984 | 0.888 | 0.937 | 4.43 | 3.14 | 0.876 |
| CUGCUUCAAACAAUCGGUAUG [Fam1A.1 aminoacylation ribozyme variant] | 2.5 | 1.33 | 1.56 | 75.4 | 40.2 | 1.29 |
| CUGCUUCAAACAAUCGGUCUU [Fam1A.1 aminoacylation ribozyme variant] | 2.97 | 1.72 | 1.91 | 107 | 52 | 1.84 |
| CUGCUUCAAACAAUCGGUUUG [Fam1A.1 aminoacylation ribozyme variant] | 3.93 | 2.1 | 2.38 | 223 | 84.2 | 2.07 |
| CUGCUUCAAACCAUCGGUCUG [Fam1A.1 aminoacylation ribozyme variant] | 0.631 | 0.887 | 0.677 | 0.756 | 0.706 | 0.708 |
| CUGCUUCAUACAAUCGGUCUG [Fam1A.1 aminoacylation ribozyme variant] | 0.628 | 0.602 | 0.69 | 0.639 | 0.32 | 0.671 |
| CUGCUUCCAACAAUCGGUCUG [Fam1A.1 aminoacylation ribozyme variant] | 0.73 | 0.691 | 0.737 | 1.03 | 1.02 | 0.634 |
| CUUACCCUAGUCAUCGAGUGA [Fam2.1 aminoacylation ribozyme variant] | 5.38 | 3.24 | 4.55 | 5.25 | 6.07 | 2.99 |
